Measured values as given in patent US20060241289A1.
Where two headings read alike, the source gives them in different places.

Tests used:
[1] = biological target: hTSH receptor expressed on CHO cells (human) (UniProt P16473); experiment: cell-based or functional assay
[2] = biological target: TSH receptor coated onto plastic tubes or ELISA plate wells (RSR Ltd) / detergent solubilised TSH receptor; experiment: Scatchard analysis, 125I-Fab on TSH receptor coated tubes
[3] = biological target: TSH receptor coated onto plastic tubes or ELISA plate wells (RSR Ltd) / detergent solubilised TSH receptor; experiment: 125I-TSH on TSHR coated tubes, sample diluted in serum
[4] = biological target: TSH receptor coated onto plastic tubes or ELISA plate wells (RSR Ltd) / detergent solubilised TSH receptor; experiment: 125I-TSH on TSHR coated tubes, sample diluted in assay buffer
[5] = biological target: TSH receptor coated onto plastic tubes or ELISA plate wells (RSR Ltd) / detergent solubilised TSH receptor; experiment: inhibition of 125I-TSH binding, mean of serum and assay buffer
[6] = biological target: TSH receptor coated onto plastic tubes or ELISA plate wells (RSR Ltd) / detergent solubilised TSH receptor; experiment: 125I-TSH on TSHR coated tubes, healthy blood donor serum pool only
[7] = biological target: TSH receptor coated onto plastic tubes or ELISA plate wells (RSR Ltd) / detergent solubilised TSH receptor; experiment: 125I-TSH on TSHR coated tubes, buffer only
[8] = biological target: TSH receptor coated onto plastic tubes (UniProt P16473); experiment: 125I-TSH binding to TSHR coated tubes, assay buffer only
[9] = biological target: TSH receptor coated onto plastic tubes or ELISA plate wells (RSR Ltd) / detergent solubilised TSH receptor; experiment: 125I-TSH on TSHR coated tubes, buffer only; remark: listed apart in the source
[10] = biological target: TSH receptor coated onto plastic tubes or ELISA plate wells (RSR Ltd) / detergent solubilised TSH receptor; experiment: 125I-TSH on TSHR coated tubes, assay buffer only
[11] = biological target: TSH receptor coated onto plastic tubes (UniProt P16473); experiment: 125I-TSH binding to TSHR coated tubes, assay buffer only; remark: listed apart in the source
[12] = biological target: TSH receptor coated onto plastic tubes or ELISA plate wells (RSR Ltd) / detergent solubilised TSH receptor; experiment: 125I-TSH on TSHR coated tubes, healthy blood donor serum pool only; remark: listed apart in the source
[13] = biological target: TSH receptor coated onto plastic tubes (UniProt P16473); experiment: TSHR coated tubes; 90/672 at 8 U/L; competitor 125I-TSH
[14] = biological target: TSH receptor coated onto plastic tubes (UniProt P16473); experiment: TSHR coated tubes; 90/672 at 40 U/L; competitor 125I-9D33
[15] = biological target: TSH receptor coated onto plastic tubes (UniProt P16473); experiment: TSHR coated tubes; 90/672 at 2 U/L; competitor 125I-9D33
[16] = biological target: TSH receptor coated onto plastic tubes (UniProt P16473); experiment: TSHR coated tubes; 90/672 at 40 U/L; competitor 125I-TSH
[17] = biological target: TSH receptor coated onto plastic tubes (UniProt P16473); experiment: TSHR coated tubes; 90/672 at 2 U/L; competitor 125I-TSH
[18] = biological target: TSH receptor coated onto plastic tubes (UniProt P16473); experiment: TSHR coated tubes; 90/672 at 8 U/L; competitor 125I-9D33
[19] = biological target: TSH receptor coated onto plastic tubes (UniProt P16473); experiment: TSHR coated tubes; 90/672 at 1 U/L; competitor 125I-9D33
[20] = biological target: TSH receptor coated onto plastic tubes (UniProt P16473); experiment: TSHR coated tubes; 90/672 at 1 U/L; competitor 125I-TSH

NIBSC 90/672 gave a Mean cyclic AMP per well; NIBSC 90/672 0.1 units/L (pmols per well) [1] of 1.09, a Mean cyclic AMP per well; NIBSC 90/672 0.3 units/L (pmols per well) [1] of 1.49 and a Mean cyclic AMP per well; NIBSC 90/672 1.0 units/L (pmols per well) [1] of 3.52. It also gave a Mean cyclic AMP per well; NIBSC 90/672 3.0 units/L (pmols per well) [1] of 8.16.
With “human TSH (from UniProt P01215 25-116; P01222 21-132) (ligand)” the stimulation of cyclic AMP production in CHO cells transfected with the TSH receptor [1] was 10 ng/mL.
Work on hMAb TSHR1 Fab yielded a Ka [2] of 4.5e+10 M⁻¹, a % inhibition [3] of 36% and a mean units/mg (NIBSC 90/672) [3] of 288 units/mg. For the same substance, the mean units/mg (NIBSC 90/672) [4] was 309 units/mg, the units/mg (NIBSC 90/672) ([4]; Fab at 3 ng/mL) was 265 units/mg and the units/mg (NIBSC 90/672) ([4]; Fab at 10 ng/mL) was 291 units/mg. The units/mg (NIBSC 90/672) ([4]; Fab at 30 ng/mL) was 372 units/mg, the Units/mg (NIBSC 90/672), inhibition of TSH binding assay [5] was 300 Units/mg and the Units/nmole (NIBSC 90/672), inhibition of TSH binding assay [5] was 15 Units/nmole.
125I-labelled TSH (ligand) showed a % of total cpm bound [6] of 14.9%, a % of total cpm bound [7] of 16.3% and a % 125I-TSH binding [8] of 11.5%. The % of total cpm bound [9] was 14.7%, the % binding [10] was 12.1% and the % inhibition [10] was 0%. For the same substance, the % 125I-TSH binding [11] was 11.1% and the % of total cpm bound [12] was 14.7%.
“NIBSC 90/672 (International Standard for thyroid stimulating antibody)” was tested, and the inhibition of 125I-TSH binding (%) [13] was 68%, the 125I-9D33 bound (% total counts added) [14] was 4.1% and the inhibition of 125I-9D33 binding (%) [14] was 72%. It also gave a 125I-9D33 bound (% total counts added) [15] of 11%, an inhibition of 125I-9D33 binding (%) [15] of 28% and an inhibition of 125I-TSH binding (%) [16] of 92%. It also gave an inhibition of 125I-TSH binding (%) [17] of 23%, a 125I-9D33 bound (% total counts added) [18] of 7.1% and an inhibition of 125I-9D33 binding (%) [18] of 52%. The 125I-9D33 bound (% total counts added) [19] was 13%, the inhibition of 125I-9D33 binding (%) [19] was 10% and the inhibition of 125I-TSH binding (%) [20] was 12%.
